US20140179896A1 (published 2014)
Blank lines part the entries; values can stand above or below the binder they belong to.

Assays:
[1] = target: T1, human vascular endothelial growth factor receptor-2 Fc chimera (KDR-Fc) (human, UniProt P35968 20-764); test: radioactive equilibrium binding assay
T1 construct: range 1-764; purchased from R&D Systems; also called hKDR; human VEGF-R2-Fc; not shown: human IgG1 Fc
Method: (§1) To prepare ³⁵S-labeled binding proteins for analysis, mRNA was prepared as described above for RNA-protein fusion production but the linker ligation step was omitted. The mRNA was expressed using rabbit reticulocyte lysate translation kit (Ambion) in the presence of ³⁵S-labeled Met at 30° C. for 1 hour. Expressed protein was purified on M2-agarose Flag beads (Sigma) as described above. This procedure produced the encoded protein without the nucleic acid tail. In a direct binding assay, VEGF-R2-Fc fusions in concentrations ranging from 0 to 200 nM were added to a constant concentration of the purified protein (0.2 or 0.5 nM) and incubated at 30° C. for 1 hour in buffer B. The receptor-binder complexes were captured using Protein A magnetic beads for another 10 minutes at room temperature using a Kingfisher™ The beads were washed with six reaction volumes of buffer B. The protein was eluted from the beads with 100 μL of 0.1 M KOH. […] of the reaction mixture and elution were dried onto a LumaPlate-96 (Packard) and the amount of ³⁵S on the plate was measured using a TopCount NXT instrument (Packard). The amount of fibronectin-based scaffold protein bound to the target was estimated as a percent of radioactivity eluted from Protein A magnetic beads compare to radioactivity in the reaction mixture. Nonspecific binding of fibronectin-based scaffold proteins to the beads was determined by measuring binding in the absence of KDR-Fc and represented less than 1-2% of the input. Specific binding was obtained through subtraction of nonspecific binding from total binding. Data was analyzed using the GraphPad Prizm software (GraphPad Software, Inc, San Diego, Calif.), fitted using a one site, non-linear binding equation.
T1 sequence (P35968 20-764 limits assumed, change not shown, form in doubt): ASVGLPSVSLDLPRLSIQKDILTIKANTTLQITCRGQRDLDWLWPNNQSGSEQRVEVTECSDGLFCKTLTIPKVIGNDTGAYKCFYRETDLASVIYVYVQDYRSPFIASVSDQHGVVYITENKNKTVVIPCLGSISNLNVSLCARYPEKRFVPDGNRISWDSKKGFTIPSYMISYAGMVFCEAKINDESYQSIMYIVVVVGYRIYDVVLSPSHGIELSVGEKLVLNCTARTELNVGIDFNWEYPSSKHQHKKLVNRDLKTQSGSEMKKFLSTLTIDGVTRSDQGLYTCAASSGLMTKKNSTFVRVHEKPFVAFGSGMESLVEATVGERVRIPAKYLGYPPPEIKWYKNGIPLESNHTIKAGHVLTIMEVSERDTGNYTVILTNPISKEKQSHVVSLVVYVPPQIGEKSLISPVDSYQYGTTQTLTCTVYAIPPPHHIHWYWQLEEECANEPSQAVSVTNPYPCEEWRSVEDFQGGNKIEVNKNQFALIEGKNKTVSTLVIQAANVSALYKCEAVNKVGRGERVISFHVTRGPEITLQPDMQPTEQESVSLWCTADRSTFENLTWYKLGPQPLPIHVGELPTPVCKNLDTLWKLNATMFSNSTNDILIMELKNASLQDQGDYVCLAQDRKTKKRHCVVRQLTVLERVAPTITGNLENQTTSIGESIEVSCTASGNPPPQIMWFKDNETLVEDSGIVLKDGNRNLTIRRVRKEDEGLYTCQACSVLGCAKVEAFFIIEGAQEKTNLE

[2] = target: T2, mouse vascular endothelial growth factor receptor-2 Fc chimera (Flk-1-Fc) (mouse, UniProt P35918 20-762); test: radioactive equilibrium binding assay
T2 construct: purchased from R&D Systems; also called mouse VEGF-R2-Fc; not shown: Fc part of the purchased chimera
Method: as §1
T2 sequence (P35918 20-762, change not shown): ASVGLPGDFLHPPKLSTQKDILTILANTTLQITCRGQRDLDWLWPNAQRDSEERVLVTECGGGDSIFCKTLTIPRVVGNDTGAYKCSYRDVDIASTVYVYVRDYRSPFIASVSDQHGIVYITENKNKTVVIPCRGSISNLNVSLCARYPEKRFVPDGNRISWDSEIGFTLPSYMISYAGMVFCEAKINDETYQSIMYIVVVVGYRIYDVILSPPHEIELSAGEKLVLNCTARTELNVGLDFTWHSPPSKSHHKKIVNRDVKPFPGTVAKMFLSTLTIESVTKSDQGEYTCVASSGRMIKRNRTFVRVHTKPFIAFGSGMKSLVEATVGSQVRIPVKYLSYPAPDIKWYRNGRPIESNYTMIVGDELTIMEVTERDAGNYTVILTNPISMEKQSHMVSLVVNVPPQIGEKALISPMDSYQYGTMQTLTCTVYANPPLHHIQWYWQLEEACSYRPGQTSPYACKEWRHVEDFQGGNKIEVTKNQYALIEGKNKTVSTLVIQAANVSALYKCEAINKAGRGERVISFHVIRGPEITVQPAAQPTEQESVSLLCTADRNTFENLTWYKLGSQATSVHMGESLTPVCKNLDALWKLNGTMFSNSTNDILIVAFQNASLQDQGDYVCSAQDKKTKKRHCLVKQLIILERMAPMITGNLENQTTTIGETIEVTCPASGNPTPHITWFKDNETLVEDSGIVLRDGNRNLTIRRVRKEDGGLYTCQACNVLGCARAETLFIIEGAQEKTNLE

[3] = target: T1, human vascular endothelial growth …; test: radioactive equilibrium binding, 1 nM KDR-Fc
How it was run: (§2)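 Read-out: eluted ³⁵S as % of input radioactivity, minus bead-only binding without KDR-Fc (under 1-2% of input); one-site non-linear fit. Tracer binder 0.2 or 0.5 nM, receptor-Fc 0–200 nM, 1 h at 30° C in buffer B.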

[4] = target: T1, human vascular endothelial growth …; test: BIAcore, target-Fc immobilized
Method: The binding kinetics of fibronectin-based scaffold proteins binding proteins to the target was measured using BIAcore 2000 biosensor (Pharmacia Biosensor). Human and mouse VEGF-R2-Fc fusions were immobilized onto a CM5 sensor chip and soluble binding proteins were injected at concentrations ranging from 0 to 100 nM in buffer 0 (10 mM HEPES, 150 mM NaCl, 0.005% Tween 20, pH 7.4). Sensorgrams were obtained at each concentration and were evaluated using a program, BIA Evaluation 2.0 (BIAcore), to determine the rate constants kₐ (kₒₙ) and kd (koff.) The affinity constant, KD was calculated from the ratio of rate constants […].

[5] = target: T1, human vascular endothelial growth …; test: radioactive equilibrium binding assay, KDR-Fc
Method: as §1

[6] = target: T1, human vascular endothelial growth …; test: radioactive equilibrium binding
Method: as §1, with “In a direct binding assay, VEGF-R2-Fc fusions in concentrations ranging from 0 to 200 nM were added to a constant concentration of the purified protein (0.2 or 0.5 nM) and incubated at 30° C. for 1 hour in buffer B. The receptor-binder complexes were captured using Protein A magnetic beads for another 10 minutes at room temperature using a Kingfisher™ The beads were washed with six reaction volumes of buffer B. The protein was eluted from the beads with 100 μL of 0.1 M KOH.” left out, “Specific binding was obtained through subtraction of nonspecific binding from total binding.” left out

[7] = target: T3, human vascular endothelial growth factor receptor-2 Fc chimera (KDR-Fc) (human, UniProt P35968 20-764); test: radioactive equilibrium binding (assay not given)
T3 construct: range 1-764; also called human VEGFR-2; hKDR; not shown: human IgG1 Fc
T3 sequence (P35968 20-764 limits assumed, change not shown, form in doubt): as the sequence (P35968 20-764 limits assumed, change not shown, form in doubt) above

[8] = target: T3, human vascular endothelial growth …; test: binding to 1 nM KDR-Fc, % of input; radioactive equilibrium binding (assay not given)
How it was run: as §2

[9] = target: T4, mouse vascular endothelial growth factor receptor-2 Fc chimera (Flk-1-Fc) (mouse, UniProt P35918 20-762); test: radioactive equilibrium binding assay with VEGFR-2-Fc chimeras (FIG. 4)
T4 construct: Purchased from R&D Systems; also called mouse VEGF-R2; not shown: Fc part of the purchased chimera
Method: as §1, with “In a direct binding assay, VEGF-R2-Fc fusions in concentrations ranging from 0 to 200 nM were added to a constant concentration of the purified protein (0.2 or 0.5 nM) and incubated at 30° C. for 1 hour in buffer B. The receptor-binder complexes were captured using Protein A magnetic beads for another 10 minutes at room temperature using a Kingfisher™ The beads were washed with six reaction volumes of buffer B. The protein was eluted from the beads with 100 μL of 0.1 M KOH.” left out, “Specific binding was obtained through subtraction of nonspecific binding from total binding.” left out
T4 sequence (P35918 20-762, change not shown): as the sequence (P35918 20-762, change not shown) above

Kd [1]: 11 nM
binding result [2]: no binding (tested: 100 nM)
Binding to 1 nM KDR, % [3]: 3%
Kd [4]: 13 nM
koff [4]: 0.00034 s⁻¹
kon [4]: 30000 M⁻¹ s⁻¹
Kd [5]: 11 nM
Kd [6]: 11 nM
B1: VR28 (designed binder)
chain: VSDVPRDLEVVAATPTSLLISWRHPHFPTRYYRITYGETGGNSPVQEFTVPLQPPTATISGLKPGVDYTITGYAVTVAQNDHELITPISINYRT
notes: scaffold said to be unchanged from wild type 10Fn3; Flag-tagged in vitro translated protein in the radioactive assay, His6-tagged E. coli protein in BIAcore; tags left out; also called VR28 (I69T)

Kd [7]: 11 nM
Binding to 1 nM KDR, % [8]: 3%
binding result [9]: no binding
B2: VR28 (designed binder)
chain: B1 chain
notes: 10Fn3 clone with WT N-terminus; tag not included; also called VR28 (I69T); VR28 clone
